The values that follow are results of earlier work, collected in PMC5488128 (CPT: Pharmacometrics & Systems Pharmacology, 2017).

For series [1] the following is noted: subcutaneously applied, tested up to 30U.
The test system of series [2] is glucose infusion rate (GIR). The note with it: type-1 patients, up to 90U insulin Lispro, GIR recording time of 12 h.

Regarding “RHI: subcutaneously (s.c.) administered regular human insulin”, the “dose proportionality of exposure” value in series [1] is reported as “dose‐proportional”. As for “insulin lispro: prandial insulin analog, comparator in clamp study NCT02470637”, in series [2], the ED50 was 51 U.
